In patent US20110313028A1 (VIRGINIA COMMONWEALTH UNIVERSITY, published 2011):

How the values were obtained:
ATF-2 = molecular target: T1, ATF-2 (UniProt P15336 1-505, limits assumed); test: similar assays (two-hybrid / co-immunoprecipitation; not specified)
T1 construct: Tested in 'similar assays'; The construct is not described
T1 sequence (looked up): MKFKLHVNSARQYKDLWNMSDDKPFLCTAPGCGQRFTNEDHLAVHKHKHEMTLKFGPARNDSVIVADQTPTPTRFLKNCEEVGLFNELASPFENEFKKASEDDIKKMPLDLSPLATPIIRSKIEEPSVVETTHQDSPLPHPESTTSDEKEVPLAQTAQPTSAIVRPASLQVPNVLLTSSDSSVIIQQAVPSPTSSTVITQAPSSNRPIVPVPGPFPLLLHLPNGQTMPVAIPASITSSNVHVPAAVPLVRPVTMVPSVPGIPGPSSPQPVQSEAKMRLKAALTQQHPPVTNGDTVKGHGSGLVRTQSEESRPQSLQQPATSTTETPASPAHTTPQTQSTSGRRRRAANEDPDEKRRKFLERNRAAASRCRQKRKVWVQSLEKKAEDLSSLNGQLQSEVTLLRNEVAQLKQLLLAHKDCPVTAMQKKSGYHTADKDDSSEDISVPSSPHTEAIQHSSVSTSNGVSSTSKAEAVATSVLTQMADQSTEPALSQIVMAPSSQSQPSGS

c-Fos = molecular target: T2, c-Fos (UniProt P01100 1-380, limits assumed); test: as above
T2 construct: Tested in 'similar assays'; The construct is not described
T2 sequence (P01100 whole entry): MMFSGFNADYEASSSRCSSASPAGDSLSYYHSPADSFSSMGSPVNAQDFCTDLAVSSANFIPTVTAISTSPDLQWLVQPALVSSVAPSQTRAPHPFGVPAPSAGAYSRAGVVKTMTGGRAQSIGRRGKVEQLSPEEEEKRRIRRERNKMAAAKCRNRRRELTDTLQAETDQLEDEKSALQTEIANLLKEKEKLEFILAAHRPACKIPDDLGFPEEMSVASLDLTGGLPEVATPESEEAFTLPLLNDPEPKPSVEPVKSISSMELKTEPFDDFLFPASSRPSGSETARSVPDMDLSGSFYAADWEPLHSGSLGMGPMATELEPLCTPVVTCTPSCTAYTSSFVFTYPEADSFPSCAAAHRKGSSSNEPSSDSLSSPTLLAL

B1: HA-tagged SARI (Suppressor of AP-1, Regulated by IFN), expressed in HeLa cells from Ad.SARI (other)
chain: MHLCGGNGLLTQTDPKEQQRQLKKQKNRAAAQRSRQKHTDKADALHQQHESLEKDNLALRKEIQSLQAELAWWSRTLHVHERLCPMDCASCSAPGLLGCWDQAEGLLGPGPQGQHGCREQLELFQTPGSCYPAQPLSPGPQPHDSPSLLQCPLPSLSLGPAVVAEPPVQLSPSPLLFASHTGSSLQGSSSKLSALQPSLTAQTAPPQPLELEHPTRGKLGSSPDNPSSALGLARLQSREHKPALSAATWQGLVVDPSPHPLLAFPLLSSAQVHF
notes: also called SARI protein; WT SARI; not shown: HA tag
- binding result (ATF-2): no binding
- binding result (c-Fos): no binding
